“Also recorded” adds a separate entry of the source.
What was measured:
[1] = Sialyltransferase activity in homogenate of E. coli carrying the JT-ISH-224 gene clones (14C-NeuAc transfer to lactose); assay type: biochemical
Method: Sialyltransferase activity was measured as described in J. Biochem., 120, 104-110 (1996) (which is hereby incorporated by reference in its entirety). More specifically, the enzymatic reaction was accomplished by using CMP-NeuAc (70 nmol, containing about 20,000 cpm CMP-NeuAc in which NeuAc was labeled with ^14C; NeuAc represents N-acetylneuraminic acid) as a glycosyl donor substrate, lactose (1.25 μmol) as a glycosyl acceptor substrate, NaCl added to give a concentration of 0.5 M, and the enzyme-containing reaction solution (30 μl) prepared as described above. The enzymatic reaction was carried out at 25° C. for about 10 to 180 minutes. After completion of the reaction, 1.97 ml of 5 mM phosphate buffer (pH 6.8) was added to the reaction solution, which was then applied to a Dowex 1×8 (PO4^3− form, 0.2×2 cm, BIO-RAD) column. The radioactivity was measured for the reaction product, i.e., sialyllactose contained in the eluate (0 to 2 ml) from this column to calculate the enzyme activity. One enzyme unit (1 U) is defined as the amount of enzyme required to transfer 1 micromole of sialic acid per minute.
An induction experiment of protein expression was performed on the five clones obtained in (3) above (i.e., ISH224-N0C0/pTrc, ISH224-N1C0/pTrc, ISH224-N2C0/pTrc, ISH224-N3C0/pTrc and ISH224-N3.1C0/pTrc). A single colony of E. coli TB1 having the expression vector pTrc99A carrying each clone was inoculated into LB medium (6 ml) containing an antibiotic, ampicillin (final concentration 100 μg/mL), and pre-cultured at 30° C. to about A600=0.5, followed by addition of IPTG (isopropyl-β-D(−)-thiogalactopyranoside, Wako Pure Chemical Industries, Ltd., Japan) at a final concentration of 1 mM. After culturing with shaking at 30° C. for an additional 4 hours, the cells in 4 ml culture solution were collected by centrifugation. These cells were suspended in 200 μl of 20 mM Bis-Tris buffer (pH 7.0) containing 0.336% Triton® X-100 and 0.5 M sodium chloride, and ultrasonically homogenized under ice cooling. The resulting homogenate was defined as a crude enzyme solution, diluted 200-fold with 20 mM cacodylate buffer (pH 5.0) containing 0.336% Triton® X-100, and then provided for activity measurement. The reaction was carried out in duplicate. The reaction conditions are as indicated in the footnotes of Tables 1-1 and 1-2.
Reaction Conditions Reaction composition:
Reaction time: 2 minutes Reaction temperature: 30° C.

[2] = Optimum pH, temperature and salt concentration for enzyme activity; assay type: biochemical
Method: The purified enzyme prepared in Example 4-1 was used to examine the optimum pH, optimum temperature and optimum salt concentration for JT-ISH-224-derived recombinant β-galactoside-α2,6-sialyltransferase N1C0.
Acetate buffer (pH 4.0, pH 4.5 and pH 5.0), cacodylate buffer (pH 5.0, pH 5.5, pH 6.0, pH 6.5 and pH 7.0), phosphate buffer (pH 7.0, pH 7.5 and pH 8.0) and TAPS buffer (pH 8.0, pH 8.5 and pH 9.0) were prepared and used for enzyme activity measurement at 25° C. at various pH values.
The enzyme activity was measured at an interval of 5° C. starting from 10° C. up to 50° C. using cacodylate buffer (pH 5.0).
The enzyme activity was measured at 30° C. using cacodylate buffer (pH 5.0) by adjusting the NaCl concentration in the reaction solution to 0 M, 0.1 M, 0.25 M, 0.5 M, 0.75 M, 1.0 M, 1.5 M or 2.0 M.

B1: ISH224-N1C0 (protein, listed as Photobacterium sp.)
chain: MSEENTQSIIKNDINKTIIDEEYVNLEPINQSNISFTKHSWVQTCGTQQLLTEQNKESISLSVVAPRLDDDEKYCFDFNGVSNKGEKYITKVTLNVVAPSLEVYVDHASLPTLQQLMDIIKSEEENPTAQRYIAWGRIVPTDEQMKELNITSFALINNHTPADLVQEIVKQAQTKHRLNVKLSSNTAHSFDNLVPILKELNSFNNVTVTNIDLYDDGSAEYVNLYNWRDTLNKTDNLKIGKDYLEDVINGINEDTSNTGTSSVYNWQKLYPANYHFLRKDYLTLEPSLHELRDYIGDSLKQMQWDGFKKFNSKQQELFLSIVNFDKQKLQNEYNSSNLPNFVFTGTTVWAGNHEREYYAKQQINVINNAINESSPHYLGNSYDLFFKGHPGGGIINTLIMQNYPSMVDIPSKISFEVLMMTDMLPDAVAGIASSLYFTIPAEKIKFIVFTSTETITDRETALRSPLVQVMIKLGIVKEENVLFWADLPNCETGVCIAV
Radioactivity (cpm) Round 1 ([1]; crude enzyme solution diluted 200-fold, lactose, 14C-CMP-sialic acid, 2 minutes, 30° C., Round 1): 1552 cpm | Radioactivity (cpm) Round 2 ([1]; crude enzyme solution diluted 200-fold, lactose, 14C-CMP-sialic acid, 2 minutes, 30° C., Round 2): 1711 cpm | Radioactivity (cpm) Average ([1]; crude enzyme solution diluted 200-fold, lactose, 14C-CMP-sialic acid, 2 minutes, 30° C., average of duplicate): 1631.5 cpm | sialyltransferase activity of the expressed clone (in words) ([1]; crude enzyme solution from E. coli TB1, listed as ISH224-N1C0/pTrc): expressed sialyltransferase; also recorded: retained the activity | pH of maximum enzyme activity (optimum pH) ([2]; 25° C., acetate, cacodylate, phosphate, TAPS buffers pH 4.0-9.0): 5.0 | temperature of maximum enzyme activity (optimum temperature) ([2]; cacodylate buffer (pH 5.0), 10° C. to 50° C.): 30 °C
